Here are results for four molecules from patent US8877192B2, “Rage fusion proteins and methods of use” (TransTech Pharma, LLC, priority 2004, dated 2014).

Where two headings read alike, the source gives them in different places.

The conditions of series [1]: cited from earlier work.
For series [2] the following is noted: listed as human sRAGE; cited from earlier work.
Series [3] concerns transgenic mice expressing the human Swedish mutant amyloid precursor protein (APP). Put plainly: Mouse model of AD (APP transgenic mice). Conditions: treated for 3 months, versus vehicle and human IgG1. It counts as in vivo. As to the method:
Experiments were performed to evaluate whether TTP-4000 could affect amyloid formation and cognitive dysfunction in a mouse model of AD. The experiments utilized transgenic mice expressing the human Swedish mutant amyloid precursor protein (APP) under the control of the PDGF-B chain promoter. Over time, these mice generate high levels of the RAGE ligand, amyloid beta (Aβ).
The APP mice (male) used in this experiment were designed by microinjection of the human APP gene (with the Swedish and London mutations) into mouse eggs under the control of the platelet-derived growth factor B (PDGF-B) chain gene promoter. The mice were generated on a C57BL/6 background and were developed by Molecular Therapeutics Inc. Animals were fed ad libitum and maintained by brother sister mating. The mice generated from this construct develop amyloid deposits starting at 6 months of age. Animals were aged for 6 months and then maintained for 90 days and sacrificed for amyloid quantification.
APP transgenic mice were administered vehicle or TTP4000 every other day [qod (i.p.)] for 90 days starting at 6 months of age. At the end of the experiment, animals were sacrificed and examined for Aβ plaque burden in the brain (i.e., plaque number). A 6-month control APP group was used to determine the baseline of amyloid deposits. In addition, at the end of the study, the animals were subjected to behavioral (Morris water maze) analysis. The investigators were blinded to the study compounds. Samples were given to the mice at 0.25 ml/mouse/every other day.
For histological examination, the animals were anesthetized with an intraperitoneal injection (IP) of sodium pentobarbital (50 mg/kg). The animals were transcardially perfused with 4° C., phosphate-buffered saline (PBS) followed by 4% paraformaldehyde. The brains were removed and placed in 4% paraformaldehyde over night. The brains were processed to paraffin and embedded. Ten serial 30-μm thick sections through the brain were obtained. Sections were subjected to primary antibody overnight at 4° C. (Aβ peptide antibody) in order to detect the amyloid deposits in the brain of the transgenic animals (Guo et al., J. Neurosci., 22:5900-5909 (2002)). Sections were washed in Tris-buffered saline (TBS) and secondary antibody was added and incubated for 1 hour at room temperature. After washing, the sections were incubated as instructed in the Vector ABC Elite kit (Vector Laboratories) and stained with […] (DAB). The reactions were stopped in water and cover-slipped after treatment with xylene. The amyloid area in each section was determined with a computer-assisted image analysis system, consisting of a Power Macintosh computer equipped with a Quick Capture frame grabber card, Hitachi CCD camera mounted on an Olympus microscope and camera stand. NIH Image Analysis Software, v. 1.55 was used. The images were captured and the total area of amyloid was determined over the ten sections. A single operator blinded to treatment status performed all measurements. Summing the amyloid volumes of the sections and dividing by the total number of sections was done to calculate the amyloid volume.
For quantitative analysis, an enzyme-linked immunosorbent assay (ELISA) was used to measure the levels of human total Aβ, Aβtotal and Aβ1-42 in the brains of APP transgenic mice (Biosource International, Camarillo, Calif.). Aβtotal and Aβ1-42 were extracted from mouse brains by guanidine hydrochloride and quantified as described by the manufacturer. […]

The next series has as its target T1, S100b (S100) (Homo sapiens, UniProt P04271).
T1 sequence (P04271 1-92): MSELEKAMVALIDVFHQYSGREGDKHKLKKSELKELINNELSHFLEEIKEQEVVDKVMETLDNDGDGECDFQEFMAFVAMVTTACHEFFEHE
The experiment in a line: In vitro ligand binding (ELISA) to immobilized S100b. Particulars: increasing dilutions of fusion protein; FIG. 7. As to the method: (§1) For example, the RAGE fusion protein may be used in a binding assay to identify potential RAGE ligands. In one example embodiment of such a binding assay, a known RAGE ligand may coated onto a solid substrate (e.g., Maxisorb plates) at a concentration of about 5 micrograms per well, where each well contains a total volume of about 100 microliters (μL). The plates may be incubated at 4° C. overnight to allow the ligand to absorb. Alternatively, shorter incubation periods at higher temperature (e.g., room temperature) may be used. […] The fusion protein bound to the immobilized ligand may be detected in a variety of ways. […] The bound complex may be detected by adding the alkaline phosphatase substrate, para-nitrophenylphosphate (PNPP), and measuring conversion of PNPP to para-nitrophenol (PNP) as an increase in absorbance at 405 nm. […] Binding was detected by the addition of an immunodetection complex containing a monoclonal mouse anti-human IgG1 diluted 1:11,000 to a final assay concentration (FAC) of 21 ng/100 μL, a biotinylated goat anti-mouse IgG diluted 1:500, to a FAC of […], and an avidin-linked alkaline phosphatase. […] Binding of the complex to the immobilized fusion protein was quantified by measuring conversion of PNPP to para-nitrophenol (PNP) which was measured spectrophotometrically at 405 nm. […]

The target of a further series is T2, amphoterin (Ampho) (Homo sapiens, UniProt P09429).
T2 sequence (P09429 1-215): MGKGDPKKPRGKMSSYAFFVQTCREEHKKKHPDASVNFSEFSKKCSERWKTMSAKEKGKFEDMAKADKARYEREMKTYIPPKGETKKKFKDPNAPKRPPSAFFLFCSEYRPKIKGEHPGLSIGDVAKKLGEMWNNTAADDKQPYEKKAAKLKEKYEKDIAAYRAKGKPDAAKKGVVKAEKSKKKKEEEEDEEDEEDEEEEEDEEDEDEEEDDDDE
Put plainly: In vitro ligand binding (ELISA) to immobilized amphoterin. Particulars: increasing dilutions of fusion protein; FIG. 7. Here is the method:
as §1

The target of a further series is T3, amyloid-beta (Abeta) (Homo sapiens, UniProt P05067).
T3 construct: Amyloid Beta (1-40) from Biosource; purchased Biosource
T3 sequence (P05067 672-711 limits assumed): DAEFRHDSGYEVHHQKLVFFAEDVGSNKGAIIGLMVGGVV
The experiment in a line: In vitro ligand binding (ELISA) to immobilized amyloid-beta. Conditions: increasing dilutions of fusion protein; FIG. 7. As to the method:
as §1

Regarding “sRAGE: soluble RAGE: the RAGE protein that does not include the transmembrane region or the cytoplasmic tail”, in series [1] (assessed by retention of immunoreactivity sRAGE), the half-life entry is given as “less than 2 hours”. Besides, the half-life in plasma result in series [2] is recorded as “about 2 hours”.

B1: mouse sRAGE: mouse soluble RAGE used as comparator in the AD mouse model (protein, UniProt Q62151 23-340, looked up)
extracellular domain: GQNITARIGEPLVLSCKGAPKKPPQQLEWKLNTGRTEAWKVLSPQGGPWDSVARILPNGSLLLPATGIVDEGTFRCRATNRRGKEVKSNYRVRVYQIPGKPEIVDPASELTASVPNKVGTCVSEGSYPAGTLSWHLDGKLLIPDGKETLVKEETRRHPETGLFTLRSELTVIPTQGGTHPTFSCSFSLGLPRRRPLNTAPIQLRVREPGPPEGIQLLVEPEGGIVAPGGTVTLTCAISAQPPPQVHWIKDGAPLPLAPSPVLLLPEVGHEDEGTYSCVATHPSHGPQESPPVSIRVTETGDEGPAEGSVGESGLGTLA
modifications: extracellular domain
notes: mouse soluble RAGE used as comparator in the AD mouse model
As for B1, in series [3] (FIG. 14A), the “Aβ plaques in the brain” value is recorded as “fewer Aβ plaques”. Besides, the “cognitive dysfunction (Morris water maze)” value in series [3] (FIG. 14B) is “less cognitive dysfunction”.

B2: rodent sRAGE: rodent soluble RAGE, literature half-life comparator (protein, UniProt Q63495 23-341, looked up)
extracellular domain: GQNITARIGEPLMLSCKGAPKKPTQKLEWKLNTGRTEAWKVLSPQGDPWDSVARILPNGSLLLPAIGIVDEGTFRCRATNRLGKEVKSNYRVRVYQIPGKPEIVNPASELTANVPNKVGTCVSEGSYPAGTLSWHLDGKPLIPDGKGTVVKEETRRHPETGLFTLRSELTVTPAQGGTTPTYSCSFSLGLPRRRPLNTAPIQPRVREPLPPEGIQLLVEPEGGTVAPGGTVTLTCAISAQPPPQIHWIKDGTPLPLAPSPVLLLPEVGHEDEGIYSCVATHPSHGPQESPPVNIRVTETGDEGQAAGSVDGSGLGTLAL
modifications: extracellular domain
notes: rodent soluble RAGE, literature half-life comparator
Turning to B2, the half-life result in series [1] (in normal and diabetic rats) was “approximately 20 hours”.

B3: TTP-3000: three domain RAGE fusion protein (SEQ ID NO: 35): human RAGE amino acids 1-136 linked to CH2 and CH3 domains of human IgG (protein)
chain: MAAGTAVGAWVLVLSLWGAVVGAQNITARIGEPLVLKCKGAPKKPPQRLEWKLNTGRTEAWKVLSPQGGGPWDSVARVLPNGSLFLPAVGIQDEGIFRCQAMNRNGKETKSNYRVRVYQIPGKPEIVDSASELTAGPSVFLFPPKPKDTLMISRTPEVTCVVVDVSHEDPEVKFNWYVDGVEVHNAKTKPREEQYNSTYRVVSVLTVLHQDWLNGKEYKCKVSNKALPAPIEKTISKAKGQPREPQVYTLPPSRDELTKNQVSLTCLVKGFYPSDIAVEWESNGQPENNYKTTPPVLDSDGSFFLYSKLTVDKSRWQQGNVFSCSVMHEALHNHYTQKSLSLSPGK
Turning to B3, the “binding to immobilized S100b (absorbance at 405 nm)” value with S100b (S100) is on record as “specifically interact”. Moreover, the “binding to immobilized amphoterin (absorbance at 405 nm)” value with amphoterin (Ampho) was “specifically interact”. For the same molecule, in the series with amyloid-beta (Abeta), the “binding to immobilized amyloid-beta (absorbance at 405 nm)” value is “specifically interact”.
